Experimental data as given in patent publication US5849493.

Biological target: STF-1 / Pbx complex C2 of Tu-6 nuclear extract (UniProt P52947+P40424)
Experiment: EMSA
Details: off-rate with 1000-fold unlabeled TSEII, room temperature; C2 supershift/block by STF-1 and Pbx antisera

Sequence of STF-1 / Pbx complex C2 of Tu-6 nuclear extract (P52947 whole entry, chain 1 of 2): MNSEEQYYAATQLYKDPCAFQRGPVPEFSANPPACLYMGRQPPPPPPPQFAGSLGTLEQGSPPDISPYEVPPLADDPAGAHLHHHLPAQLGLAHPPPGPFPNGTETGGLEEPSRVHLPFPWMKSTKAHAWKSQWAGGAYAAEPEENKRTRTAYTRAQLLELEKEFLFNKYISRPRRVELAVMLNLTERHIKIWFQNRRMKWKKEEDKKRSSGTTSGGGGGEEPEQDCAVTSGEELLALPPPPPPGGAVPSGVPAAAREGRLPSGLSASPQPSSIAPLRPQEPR
Sequence of STF-1 / Pbx complex C2 of Tu-6 nuclear extract (P40424 whole entry, chain 2 of 2): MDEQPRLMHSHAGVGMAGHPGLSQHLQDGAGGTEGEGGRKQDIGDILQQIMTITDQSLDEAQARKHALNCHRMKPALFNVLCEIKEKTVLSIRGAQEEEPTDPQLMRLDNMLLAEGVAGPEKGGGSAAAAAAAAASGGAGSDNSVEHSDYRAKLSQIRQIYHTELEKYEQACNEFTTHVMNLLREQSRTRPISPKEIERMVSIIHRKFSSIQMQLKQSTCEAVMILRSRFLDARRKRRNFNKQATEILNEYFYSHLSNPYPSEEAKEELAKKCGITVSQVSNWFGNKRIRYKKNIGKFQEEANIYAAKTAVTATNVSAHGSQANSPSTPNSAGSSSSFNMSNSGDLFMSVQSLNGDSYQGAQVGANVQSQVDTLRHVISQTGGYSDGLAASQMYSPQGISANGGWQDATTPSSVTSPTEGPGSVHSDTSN

“GATCTCAGTAATTAATCATGCA / AGTCATTAATTAGTACGTCATG [somatostatin TSEII]” gave a koff (min (half-life)) of 15.
